From US20200024322A1 (Eli Lilly, published 2020)
Numbered stars: 1 amine (or outer) side, 2 acyl side, 3 side chain; on linkers, the order of the positions; unused ones are H or OH. Square brackets hold non-standard residues; d marks the D form. Side chains are listed from the residue outwards. Ends that are not written are not given here. * marks the point of attachment. C20 diacid = O=C(O)CCCCCCCCCCCCCCCCCCC(=O)*; αMePhe(2-F) = C[C@](N)(Cc1ccccc1F)C(=O)O; γGlu = O=C(O)[C@H](CCC(=O)[*:2])N[*:1]; αMeL = CC(C)C[C@](C)(N)C(=O)O; AEEA = NCCOCCOCC(=O)O; Aib = CC(C)(N)C(=O)O

T1: human GIP receptor (human, UniProt P48546 22-466)
T1 construct: whole, on cells; Used as crude membranes of stably transfected CHO cells; also called hGIPR
T1 sequence (looked up): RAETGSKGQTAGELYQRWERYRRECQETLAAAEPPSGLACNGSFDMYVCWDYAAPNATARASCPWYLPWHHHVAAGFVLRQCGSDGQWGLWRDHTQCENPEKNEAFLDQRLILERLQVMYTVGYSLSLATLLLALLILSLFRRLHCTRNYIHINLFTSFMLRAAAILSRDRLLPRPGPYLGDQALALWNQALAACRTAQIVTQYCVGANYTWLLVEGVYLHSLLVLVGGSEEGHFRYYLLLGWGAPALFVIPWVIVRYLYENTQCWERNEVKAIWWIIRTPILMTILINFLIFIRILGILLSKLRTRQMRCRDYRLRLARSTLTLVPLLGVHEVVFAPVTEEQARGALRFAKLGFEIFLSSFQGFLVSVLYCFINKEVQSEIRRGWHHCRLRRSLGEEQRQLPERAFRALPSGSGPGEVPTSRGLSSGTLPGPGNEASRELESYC


Columns and labels:
human GLP-1 receptor = molecular target: T2, human GLP-1 receptor (human, UniProt P43220 24-463); test: SPA, [125I]-GLP-1 displacement, hGLP-1R membranes
T2 construct: whole, on cells; Used as crude membranes of stably transfected HEK293 cells; also called hGLP1R; hGLP-1R

human GIP receptor = molecular target: T1, human GIP receptor; test: SPA, [125I]-GIP displacement, hGIPR membranes
human glucagon receptor = molecular target: T3, human glucagon receptor (human, UniProt P47871 26-477); test: SPA, [125I]-Gcg displacement, hGcgR membranes
T3 construct: whole, on cells; Used as crude membranes of stably transfected HEK293 cells; also called hGcgR; hGLcgR
T3 sequence (P47871 26-477): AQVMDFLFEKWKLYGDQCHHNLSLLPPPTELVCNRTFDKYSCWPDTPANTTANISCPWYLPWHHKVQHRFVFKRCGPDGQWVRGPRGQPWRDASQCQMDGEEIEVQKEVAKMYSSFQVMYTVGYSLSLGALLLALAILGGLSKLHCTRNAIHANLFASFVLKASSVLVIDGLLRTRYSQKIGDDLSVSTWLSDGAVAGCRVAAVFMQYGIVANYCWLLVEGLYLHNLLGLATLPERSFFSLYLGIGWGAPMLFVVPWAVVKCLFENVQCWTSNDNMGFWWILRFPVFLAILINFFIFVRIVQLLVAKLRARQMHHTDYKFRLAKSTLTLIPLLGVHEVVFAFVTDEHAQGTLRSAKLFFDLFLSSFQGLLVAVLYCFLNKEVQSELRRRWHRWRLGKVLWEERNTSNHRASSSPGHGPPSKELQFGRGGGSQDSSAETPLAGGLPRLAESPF

Binder | Ki (human GLP-1 receptor) | Ki (human GIP receptor) | Ki (human glucagon receptor)
XAEGTFTSDYSILLDKKAQXAFIEYLIEGGPSSGAPPPS (N-terminal Ac; D-Tyr1; K17((2-[2-(2-Amino-ethoxy)-ethoxy]-acetyl)2-(γ-Glu)-CO-(CH2)18-CO2H); Aib20; C-terminal NH2) [Example 79] | 2.69 nM | 0.0313 nM | 429 nM
YXEGTFTSDYSIXLDKKAQXAFIEYXIEGGPSSGAPPPS (Aib2; αMeL13; K17((2-[2-(2-Amino-ethoxy)-ethoxy]-acetyl)2-(γ-Glu)-CO-(CH2)18-CO2H); Aib20; αMeL26; C-terminal NH2) [Example 75] | 24.4 nM | 0.103 nM | 283 nM
YXEGTXTSDYSIXLDKKAQXDFIEYLIEGGPSSGAPPPS (Aib2; αMeF6; αMeL13; K17((2-[2-(2-Amino-ethoxy)-ethoxy]-acetyl)2-(γ-Glu)-CO-(CH2)18-CO2H); Aib20; C-terminal NH2) [Example 140] | 1.46 nM | 0.0474 nM | 175 nM
YXEGTXTSDYSIXLDKKAQXAFIEYLIEGGPSSGAPPPS (Aib2; αMeF6; αMeL13; K17((2-[2-(2-Amino-ethoxy)-ethoxy]-acetyl)2-(γ-Glu)-CO-(CH2)18-CO2H); Aib20; C-terminal NH2) [Example 69] | 1.22 nM | 0.03 nM | 22.1 nM
YXEGTXTSDYSIXLDKKAQXAFIEYLIEAGPSSGAPPPS (Aib2; αMeF6; αMeL13; K17((2-[2-(2-Amino-ethoxy)-ethoxy]-acetyl)2-(γ-Glu)-CO-(CH2)18-CO2H); Aib20; C-terminal NH2) [Example 126] | 1.46 nM | 0.0644 nM | 101 nM
YXEGTXTSDYSIXLDEKAQXEFIHYLIEGGPSSGAPPPS (Aib2; αMeF(2F)6; αMeL13; K17((2-[2-(2-Amino-ethoxy)-ethoxy]-acetyl)2-(γ-Glu)-CO-(CH2)18-CO2H); Aib20; C-terminal NH2) [Example 153] | 22.2 nM | 0.0578 nM | 43.8 nM
FXEGTXTSDYSIXLDEKAQXAFIEYLIEGGPSSGAPPPS (Aib2; αMeF6; αMeL13; K17((2-[2-(2-Amino-ethoxy)-ethoxy]-acetyl)2-(γ-Glu)-CO-(CH2)18-CO2H); Aib20; C-terminal NH2) [Example 119] | 9.87 nM | 0.0925 nM | 30.6 nM
YXEGTXTSDYSIXLDEKAQXEFIEYLIEGGPSSGAPPPS (Aib2; αMeF(2F)6; αMeL13; K17((2-[2-(2-Amino-ethoxy)-ethoxy]-acetyl)2-(γ-Glu)-CO-(CH2)18-CO2H); Aib20; C-terminal NH2) [Example 118] | 6.1 nM | 0.0859 nM | 53 nM
YXEGTXTSDYSIXLDEKAQXEFISYLIEGGPSSGAPPPS (Aib2; αMeF(2F)6; αMeL13; K17((2-[2-(2-Amino-ethoxy)-ethoxy]-acetyl)2-(γ-Glu)-CO-(CH2)18-CO2H); Aib20; C-terminal NH2) [Example 150] | 30.5 nM | 0.0649 nM | 63.2 nM
YXEGTXTSDYSIXLDEKAQXEFIVYLIEGGPSSGAPPPS (Aib2; αMeF(2F)6; αMeL13; K17((2-[2-(2-Amino-ethoxy)-ethoxy]-acetyl)2-(γ-Glu)-CO-(CH2)18-CO2H); Aib20; C-terminal NH2) [Example 149] | 26.1 nM | 0.0708 nM | 127 nM
YXEGTXTSDYSIXLDKKAQXSFIEYLIEGGPSSGAPPPS (Aib2; αMeF6; αMeL13; K17((2-[2-(2-Amino-ethoxy)-ethoxy]-acetyl)2-(γ-Glu)-CO-(CH2)18-CO2H); Aib20; C-terminal NH2) [Example 138] | 0.926 nM | 0.0295 nM | 61.2 nM
YXEGTXTSDYSIXLDEKAQXEFIEYLIEGGPSSGAPPPS (Aib2; αMeF6; αMeL13; K17((2-[2-(2-Amino-ethoxy)-ethoxy]-acetyl)2-(γ-Glu)-CO-(CH2)18-CO2H); Aib20; C-terminal NH2) [Example 116] | 6.8 nM | 0.0597 nM | 137 nM
HXEGTXTSDYSIXLDEKAQXEFIEYLIEGGPSSGAPPPS (Aib2; αMeF(2F)6; αMeL13; K17((2-[2-(2-Amino-ethoxy)-ethoxy]-acetyl)2-(γ-Glu)-CO-(CH2)18-CO2H); Aib20; C-terminal NH2) [Example 163] | 10.8 nM | 0.116 nM | 117 nM
Y[Aib]EGT[αMePhe(2-F)]TSDHSI[αMeL]LDEK([AEEA-AEEA-γGlu-C20 diacid])AQ[Aib]EFIEYLIEGGPSSGAPPPS-NH2 (N-terminus assumed; SMILES CC[C@H](C)[C@H](NC(=O)[C@H](CC(C)C)NC(=O)[C@H](Cc1ccc(O)cc1)NC(=O)[C@H](CCC(=O)O)NC(=O)[C@@H](NC(=O)[C@H](Cc1ccccc1)NC(=O)[C@H](CCC(=O)O)NC(=O)C(C)(C)NC(=O)[C@H](CCC(N)=O)NC(=O)[C@H](C)NC(=O)[C@H](CCCCNC(=O)COCCOCCNC(=O)COCCOCCNC(=O)CC[C@H](NC(=O)CCCCCCCCCCCCCCCCCCC(=O)O)C(=O)O)NC(=O)[C@H](CCC(=O)O)NC(=O)[C@H](CC(=O)O)NC(=O)[C@H](CC(C)C)NC(=O)[C@](C)(CC(C)C)NC(=O)[C@@H](NC(=O)[C@H](CO)NC(=O)[C@H](Cc1c[nH]cn1)NC(=O)[C@H](CC(=O)O)NC(=O)[C@H](CO)NC(=O)[C@@H](NC(=O)[C@](C)(Cc1ccccc1F)NC(=O)[C@@H](NC(=O)CNC(=O)[C@H](CCC(=O)O)NC(=O)C(C)(C)NC(=O)[C@@H](N)Cc1ccc(O)cc1)[C@@H](C)O)[C@@H](C)O)[C@@H](C)CC)[C@@H](C)CC)C(=O)N[C@@H](CCC(=O)O)C(=O)NCC(=O)NCC(=O)N1CCC[C@H]1C(=O)N[C@@H](CO)C(=O)N[C@@H](CO)C(=O)NCC(=O)N[C@@H](C)C(=O)N1CCC[C@H]1C(=O)N1CCC[C@H]1C(=O)N1CCC[C@H]1C(=O)N[C@@H](CO)C(N)=O) [Example 154] | 5.64 nM | 0.061 nM | 762 nM
YXEGTXTSDYSIXLDKKAQXAFIEYLIEGGPSSGAPPPS (Aib2; αMeF6; αMeL13; K17((2-[2-(2-Amino-ethoxy)-ethoxy]-acetyl)2-(γ-Glu)2-CO-(CH2)18-CO2H); Aib20; C-terminal NH2) [Example 125] | 3.19 nM | 0.0624 nM | 54.4 nM
YXEGTXTSDASIXLDKKAQXAFIEYLIEGGPSSGAPPPS (Aib2; αMeF6; αMeL13; K17((2-[2-(2-Amino-ethoxy)-ethoxy]-acetyl)2-(γ-Glu)-CO-(CH2)18-CO2H); Aib20; C-terminal NH2) [Example 145] | 2.22 nM | 0.0652 nM | 158 nM
YXEGTXTSDYSIXLDKKAQXHFIEYLIEGGPSSGAPPPS (Aib2; αMeF6; αMeL13; K17((2-[2-(2-Amino-ethoxy)-ethoxy]-acetyl)2-(γ-Glu)-CO-(CH2)18-CO2H); Aib20; C-terminal NH2) [Example 142] | 1.06 nM | 0.0275 nM | 53.1 nM
